Test results reported in PMC9820243, “Structural and Functional Characterization of a New Bacterial Dipeptidyl Peptidase III Involved in Fruiting Body Formation in Myxobacteria” (International Journal of Molecular Sciences, 2022).

Legend:
[1] = biological target: the molecule itself; assay: SEC; HiLoad 16/600 Superdex 200 pg, 20 mM Tris-HCl (pH 7.0) with 0.1 M NaCl, 1 mL/min; mass standards ovalbumin, conalbumin, aldolase, ferritin
[2] = biological target: the molecule itself; assay: crystal structure; Se-Met-labelled protein, sitting-drop vapor diffusion at 20 °C, 0.1 M sodium acetate trihydrate pH 4.59, 24% w/v PEG 3350, 0.01 M TCEP; SAD, 1.90 Å; ligand-free, two molecules in the asymmetric unit

Protein | stoichiometry N [1] | binding result [2]
Dipeptidyl peptidase III from Corallococcus sp. EGB (recombinant CoDPP III) (enzyme, UniProt A0A5H1ZR28 1-537, looked up, signal peptide in the construct; dipeptidyl peptidase III (CoDPP III) of Corallococcus sp; EGB, open reading frame of 1719 bp encoding 572 amino acids, predicted signal peptide residues 1 to 22; cloned into Nde I and Xho I sites of pET29a(+); The Xho I site of pET29a probably adds Leu-Glu before the His6 tag (surmised); also called native DPP III; source: E. coli BL21(DE3), purified (CM-Sepharose …)) RLPDAPTLKRMTARFAPVDVKVDVSKLPDAEKRALAKILQAAKIMDPLFLSQAWAGNPTLLLDLVEDTTPLGKERLHAFLLNKGPWSRLDEAKPFIPGVPPKPDEGNFYPAGATKAEVEAWVKSLPEAQQHAATGFFTTVRKGPDGKFLTVPYSVEYQGELGMAAKLLREAAALTQQSTLKRFLETRAEAFLSNDYYASEVAWMELDASVEPTIGPYEVYEDGWFNYKAAFEAFIGVRDEAETQKLAKFSAELQELENNLPIEPALRNPKLGALAPIRVINSLYSSGDGNRGVQTAAYNLPNDERVAAEKGTKRVMLKNIQEAKFQRVLVPIAKVALPAKDRKDVSFDAFFTHILMHELMHGLGPHNVTVAGKQTTVRQALQASSSAIEEAKADISGLWALQRLVDKGTLDKELQRTMYTTFLASAFRSIRFGIDEAHGKGIALQLNHFLDTGAVKVNADGTFEVVPDKMQASVTSLTNQLMSLQAKGDRAAAEELLAKQGVVRPSVQKVLEKLKNVPVDIEPRYVTAESLVKDFGA | 2 | 
Selenomethionine-labelled dipeptidyl peptidase III from Corallococcus sp. EGB (enzyme, UniProt A0A5H1ZR28 1-537, looked up, selenomethionine (Se-Met labelled), signal peptide in the construct; dipeptidyl peptidase III (CoDPP III) of Corallococcus sp; EGB, same pET29a-Codpp III construct as m1 (572 amino acids, predicted signal peptide residues 1 to 22); the final model lacks 27 amino acids at the N-terminus and 8 (chain A) or 12 (chain B) at the C-terminus; Same construct as m1, expressed in a methionine auxotroph with Se-Met; also called Se-CoDPPIII; …) RLPDAPTLKRMTARFAPVDVKVDVSKLPDAEKRALAKILQAAKIMDPLFLSQAWAGNPTLLLDLVEDTTPLGKERLHAFLLNKGPWSRLDEAKPFIPGVPPKPDEGNFYPAGATKAEVEAWVKSLPEAQQHAATGFFTTVRKGPDGKFLTVPYSVEYQGELGMAAKLLREAAALTQQSTLKRFLETRAEAFLSNDYYASEVAWMELDASVEPTIGPYEVYEDGWFNYKAAFEAFIGVRDEAETQKLAKFSAELQELENNLPIEPALRNPKLGALAPIRVINSLYSSGDGNRGVQTAAYNLPNDERVAAEKGTKRVMLKNIQEAKFQRVLVPIAKVALPAKDRKDVSFDAFFTHILMHELMHGLGPHNVTVAGKQTTVRQALQASSSAIEEAKADISGLWALQRLVDKGTLDKELQRTMYTTFLASAFRSIRFGIDEAHGKGIALQLNHFLDTGAVKVNADGTFEVVPDKMQASVTSLTNQLMSLQAKGDRAAAEELLAKQGVVRPSVQKVLEKLKNVPVDIEPRYVTAESLVKDFGA |  | binds
